Tests used:
[1] = substrate: CC1(C)S[C@@H]2[C@H](NC(=O)Cc3ccccc3)C(=O)N2[C@H]1C(=O)O; assay: (§1) Ratio of Kcat to Km for Pseudomonas maltophilia ULA-511 beta-Lactamase L-1; conditions: Stenotrophomonas maltophilia
[2] = substrate: CO[C@@]1(NC(=O)Cc2cccs2)C(=O)N2C(C(=O)O)=C(COC(N)=O)CS[C@@H]21; assay: as §1; conditions: Stenotrophomonas maltophilia
[3] = substrate: CO/N=C(\C(=O)N[C@@H]1C(=O)N2C(C(=O)O)=C(COC(N)=O)CS[C@H]12)c1ccco1; assay: as §1; conditions: Stenotrophomonas maltophilia
[4] = substrate: CO[C@@]1(NC(=O)C(C(=O)O)c2ccsc2)C(=O)N2[C@@H](C(=O)O)C(C)(C)S[C@@H]21; assay: as §1; conditions: Stenotrophomonas maltophilia
[5] = substrate: CO/N=C(\C(=O)N[C@@H]1C(=O)N2C(C(=O)[O-])=C(C[N+]3(C)CCCC3)CS[C@H]12)c1csc(N)n1; assay: as §1; conditions: Stenotrophomonas maltophilia
[6] = substrate: CC(C)(O/N=C(\C(=O)N[C@@H]1C(=O)N2C(C(=O)[O-])=C(C[n+]3ccccc3)CS[C@H]12)c1csc(N)n1)C(=O)O; assay: as §1; conditions: Stenotrophomonas maltophilia
[7] = substrate: CC1(C)S[C@@H]2[C@H](NC(=O)[C@H](N)c3ccccc3)C(=O)N2[C@H]1C(=O)O; assay: as §1; conditions: Stenotrophomonas maltophilia
[8] = substrate: C[C@@H](O)[C@H]1C(=O)N2C(C(=O)O)=C(SCCNC=N)C[C@H]12; assay: as §1; conditions: Stenotrophomonas maltophilia
[9] = substrate: CCN1CCN(C(=O)N[C@@H](C(=O)N[C@@H]2C(=O)N3[C@@H]2SC(C)(C)[C@@H]3C(=O)O)c2ccccc2)C(=O)C1=O; assay: as §1; conditions: Stenotrophomonas maltophilia
[10] = substrate: CC1(C)S[C@@H]2[C@H](NC(=O)[C@H](C(=O)O)c3ccsc3)C(=O)N2[C@H]1C(=O)O; assay: as §1; conditions: Stenotrophomonas maltophilia
[11] = substrate: CO/N=C(\C(=O)N[C@@H]1C(=O)N2C(C(=O)O)=C(COC(C)=O)CS[C@H]12)c1csc(N)n1; assay: as §1; conditions: Stenotrophomonas maltophilia
[12] = substrate: CC1(C)S[C@@H]2[C@H](NC(=O)Cc3ccccc3)C(=O)N2[C@H]1C(=O)O; assay: (§2) Ratio of Kcat to Km for Caulobacter crescentus beta-Lactamase CAU-1; conditions: Caulobacter vibrioides
[13] = substrate: CC(=O)OCC1=C(C(=O)O)N2C(=O)[C@@H](NC(=O)Cc3cccs3)[C@H]2SC1; assay: as §2; conditions: Caulobacter vibrioides
[14] = substrate: CO/N=C(\C(=O)N[C@@H]1C(=O)N2C(C(=O)O)=C(COC(N)=O)CS[C@H]12)c1ccco1; assay: as §2; conditions: Caulobacter vibrioides
[15] = substrate: CC(C)(O/N=C(\C(=O)N[C@@H]1C(=O)N2C(C(=O)[O-])=C(C[n+]3ccccc3)CS[C@H]12)c1csc(N)n1)C(=O)O; assay: as §2; conditions: Caulobacter vibrioides
[16] = substrate: CC1(C)S[C@@H]2[C@H](NC(=O)[C@H](N)c3ccccc3)C(=O)N2[C@H]1C(=O)O; assay: as §2; conditions: Caulobacter vibrioides
[17] = substrate: C[C@@H](O)[C@H]1C(=O)N2C(C(=O)O)=C(SCCNC=N)C[C@H]12; assay: as §2; conditions: Caulobacter vibrioides
[18] = substrate: CCN1CCN(C(=O)N[C@@H](C(=O)N[C@@H]2C(=O)N3[C@@H]2SC(C)(C)[C@@H]3C(=O)O)c2ccccc2)C(=O)C1=O; assay: as §2; conditions: Caulobacter vibrioides
[19] = substrate: CO/N=C(\C(=O)N[C@@H]1C(=O)N2C(C(=O)O)=C(COC(N)=O)CS[C@H]12)c1ccco1; assay: (§3) Ratio of Kcat to Km for Janthinobacterium lividum THIN-B
[20] = substrate: CO/N=C(\C(=O)N[C@@H]1C(=O)N2C(C(=O)[O-])=C(C[N+]3(C)CCCC3)CS[C@H]12)c1csc(N)n1; assay: as §3
[21] = substrate: CC(C)(O/N=C(\C(=O)N[C@@H]1C(=O)N2C(C(=O)[O-])=C(C[n+]3ccccc3)CS[C@H]12)c1csc(N)n1)C(=O)O; assay: as §3
[22] = substrate: CC1(C)S[C@@H]2[C@H](NC(=O)[C@H](N)c3ccccc3)C(=O)N2[C@H]1C(=O)O; assay: as §3
[23] = substrate: C[C@@H](O)[C@H]1C(=O)N2C(C(=O)O)=C(SCCNC=N)C[C@H]12; assay: as §3
[24] = substrate: CCN1CCN(C(=O)N[C@@H](C(=O)N[C@@H]2C(=O)N3[C@@H]2SC(C)(C)[C@@H]3C(=O)O)c2ccccc2)C(=O)C1=O; assay: as §3
[25] = substrate: CO/N=C(\C(=O)N[C@@H]1C(=O)N2C(C(=O)O)=C(COC(C)=O)CS[C@H]12)c1csc(N)n1; assay: as §3
[26] = substrate: CC1(C)S[C@@H]2[C@H](NC(=O)Cc3ccccc3)C(=O)N2[C@H]1C(=O)O; assay: (§4) Ratio of Kcat to Km for Chryseobacterium meningosepticum beta-Lactamase GOB-1; conditions: Elizabethkingia meningoseptica
[27] = substrate: CO[C@@]1(NC(=O)Cc2cccs2)C(=O)N2C(C(=O)O)=C(COC(N)=O)CS[C@@H]21; assay: as §4; conditions: Elizabethkingia meningoseptica
[28] = substrate: CC(=O)OCC1=C(C(=O)O)N2C(=O)[C@@H](NC(=O)Cc3cccs3)[C@H]2SC1; assay: as §4; conditions: Elizabethkingia meningoseptica
[29] = substrate: CO/N=C(\C(=O)N[C@@H]1C(=O)N2C(C(=O)O)=C(COC(N)=O)CS[C@H]12)c1ccco1; assay: as §4; conditions: Elizabethkingia meningoseptica
[30] = substrate: CO/N=C(\C(=O)N[C@@H]1C(=O)N2C(C(=O)[O-])=C(C[N+]3(C)CCCC3)CS[C@H]12)c1csc(N)n1; assay: as §4; conditions: Elizabethkingia meningoseptica
[31] = substrate: CC(C)(O/N=C(\C(=O)N[C@@H]1C(=O)N2C(C(=O)[O-])=C(C[n+]3ccccc3)CS[C@H]12)c1csc(N)n1)C(=O)O; assay: as §4; conditions: Elizabethkingia meningoseptica
[32] = substrate: C[C@@H](O)[C@H]1C(=O)N2C(C(=O)O)=C(SCCNC=N)C[C@H]12; assay: as §4; conditions: Elizabethkingia meningoseptica
[33] = substrate: CCN1CCN(C(=O)N[C@@H](C(=O)N[C@@H]2C(=O)N3[C@@H]2SC(C)(C)[C@@H]3C(=O)O)c2ccccc2)C(=O)C1=O; assay: as §4; conditions: Elizabethkingia meningoseptica
[34] = substrate: CC1(C)S[C@@H]2[C@H](NC(=O)[C@H](C(=O)O)c3ccsc3)C(=O)N2[C@H]1C(=O)O; assay: as §4; conditions: Elizabethkingia meningoseptica
[35] = substrate: CO/N=C(\C(=O)N[C@@H]1C(=O)N2C(C(=O)O)=C(COC(C)=O)CS[C@H]12)c1csc(N)n1; assay: as §4; conditions: Elizabethkingia meningoseptica

B1: Beta-lactamase L1 (Stenotrophomonas maltophilia), P52700 (protein)
chain: MRSTLLAFALAVALPAAHTSAAEVPLPQLRAYTVDASWLQPMAPLQIADHTWQIGTEDLTALLVQTPDGAVLLDGGMPQMASHLLDNMKARGVTPRDLRLILLSHAHADHAGPVAELKRRTGAKVAANAESAVLLARGGSDDLHFGDGITYPPANADRIVMDGEVITVGGIVFTAHFMAGHTPGSTAWTWTDTRNGKPVRIAYADSLSAPGYQLQGNPRYPHLIEDYRRSFATVRALPCDVLLTPHPGASNWDYAAGARAGAKALTCKAYADAAEQKFDGQLAKETAGAR
For B1, the kcat/Km [1] was 2.2 ×10⁷ /M/s, the kcat/Km [2] was 5.5 ×10⁵ /M/s and the kcat/Km [3] was 2.7 ×10⁶ /M/s. For the same protein, the kcat/Km [4] was 1.2 ×10⁶ /M/s, the kcat/Km [5] was 1.69 ×10⁴ /M/s and the kcat/Km [6] was 1.8 ×10⁵ /M/s. It also gave a kcat/Km [7] of 4.4 ×10⁶ /M/s, a kcat/Km [8] of 7.3 ×10⁵ /M/s and a kcat/Km [9] of 7 ×10⁶ /M/s. The kcat/Km [10] was 2.7 ×10⁶ /M/s and the kcat/Km [11] was 2.6 ×10⁶ /M/s.

B2: Metallo-beta-lactamase (Caulobacter vibrioides), Q8KKG1 (protein)
chain: MKRLILAAAASLLALASAAHADDMPANWTKPTKPYRVVGNIYYVGTEGISSWLITSSEGHVVLDGGPNAETGKLVERNITALGFQLADVKILINTHAHYDHAGGLAQLKADTGAKLWISRDDAPAMAAGHHIGDNIYGPTPMPAAKPDRSFGDQTKLKLGEIAMVAHLTPGHTIGCTSWTTAVVEKGRPLTVTFPCSLSVAGNVLVGNKTHRTIVADYRASFAKLRAIPTDVMLPAHEEQGNLLAKRQKQLRGDPNAFVDPGELARFVDASEAAFNKELARQQAAGPNR
Protein B2 has a kcat/Km [12] of 4.5 ×10⁵ /M/s, a kcat/Km [13] of 4.3 ×10⁵ /M/s and a kcat/Km [14] of 1.4 ×10⁴ /M/s. The kcat/Km [15] was 2 ×10³ /M/s, the kcat/Km [16] was 5 ×10⁵ /M/s and the kcat/Km [17] was 2 ×10⁵ /M/s. The kcat/Km [18] was 5.7 ×10⁵ /M/s.

B3: THIN-B proetin (Janthinobacterium lividum), Q9AEF9 (protein)
chain: MTLLAKLMLATVATMSAATVQAKTPAPKPDTPVDCDSCKAWNGEVTPFNVFGNTWYVGTAGLSAVLVTSPQGHVLLDGALPQSAPLIIANIAALGFRIEDVKFILNSHAHWDHAGGIAALQAASGATVVASASGALGLQSGTNGKDDPQFQAKPVVHVAKVEKVKVVGEGDAIKLGPLNLTAHMTPGHTPGATTWTWTSCEGQRCLDVVYADSLNPYSSGDFTYTGKGDGPDISASFAASIAKVAALPCDIILSVHPDSTGVLDKAAKRSGEHNPFIDANACRAYAATADAMLTKRLAKERGVALPAAAPAAQHAH
B3 was tested, and the kcat/Km [19] was 2.8 ×10⁶ /M/s, the kcat/Km [20] was 7.9 ×10³ /M/s and the kcat/Km [21] was 1.4 ×10⁵ /M/s. For the same protein, the kcat/Km [22] was 3.7 ×10⁵ /M/s, the kcat/Km [23] was 1.5 ×10⁶ /M/s and the kcat/Km [24] was 2 ×10⁵ /M/s. It also gave a kcat/Km [25] of 2 ×10⁶ /M/s.

B4: GOB-1 metallo-beta-lactamase (Elizabethkingia meningoseptica), A4GRB7 (protein)
chain: MRNFATLFFMFICLGLNAQVVKEPENMPKEWNQTYEPFRIAGNLYYVGTYDLASYLIVTDKGNILINTGTAESLPIIKANIQKLGFNYKDIKILLLTQAHYDHTGALQDLKTETGAKFYADKADADVLRTGGKSDYEMGKYGVTFKPVTPDKTLKDQDKITLGNTILTLLHHPGHTKGSCSFIFETKDEKRKYRVLIANMPSVIVDKKFSEVTAYPNIQSDYAYTFKAMKNLDFDLWVASHASQFDLHEKRKEGDPYNPQLFMDKQSYFQNLNDLEKSYLDKIKKDSQDK
B4 was tested, and the kcat/Km [26] was 1.9 ×10⁷ /M/s, the kcat/Km [27] was 2.5 ×10⁵ /M/s and the kcat/Km [28] was 6.7 ×10⁵ /M/s. It also gave a kcat/Km [29] of 9.8 ×10⁵ /M/s, a kcat/Km [30] of 2 ×10⁵ /M/s and a kcat/Km [31] of 7.6 ×10⁵ /M/s. For the same protein, the kcat/Km [32] was 6.6 ×10⁵ /M/s, the kcat/Km [33] was 1.7 ×10⁶ /M/s and the kcat/Km [34] was 5.2 ×10⁵ /M/s. The kcat/Km [35] was 8.5 ×10⁵ /M/s.

Source: ChEMBL document CHEMBL1275443, “Functional diversity among metallo-beta-lactamases: characterization of the CAR-1 enzyme of Erwinia carotovora” (2008)
